Results as given in the supplement of paper PMC10126150.
± gives the standard deviation of the averaged measurements.

System: ATP
Experiment: switch fluorescence ratio, 500 uM ATP over buffer (Cy3 cluster intensity, sum of 5 cycles each) (fold (ratio)); higher = stronger signal-on switching upon ATP binding; sequences stand for … in TCGTCGGCAGCGTCAGATGTGTATAAGAGACAGTTTTTTTTTTTTTTTTTTTTTTTTT…TC
Conditions: aptamer strand: ATP DNA aptamer (quencher-CACCTGGGGGAGTATTGCGGAGGAAGG + anchor), 100 nM annealed; ATP concentration: 500 uM
Method in brief: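 For every switch-domain sequence, the fluorescence ratio is the mean of per-cluster values, each being summed target-cycle Cy3 intensity over summed buffer-cycle Cy3 intensity. Clusters outside 100-1000 RFU were excluded. On a modified Illumina MiSeq flow-cell, the Cy3-labelled switching-strand clusters were annealed to 100 nM quencher-labelled ATP aptamer, imaged in selection buffer and then after 15 min with 500 uM ATP at 22 °C. Five such cycles were run, with NaOH stripping and re-annealing between them.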
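Also: ATP exposure 15 min at 22 °C before imaging.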

In the case of GAAGTTATTT, the switch fluorescence ratio is reported as 0.981 ± 0.021.

In the case of GAAGTTCATG, the switch fluorescence ratio is reported as 1.03 ± 0.024.

With GAAGTTGGCA the switch fluorescence ratio was 0.9964 ± 0.0029.

GAAGTTGTTT was tested, and the switch fluorescence ratio was 1.018 ± 0.002.

GAATAAAAGG gave a switch fluorescence ratio of 0.973 ± 0.019.

In the case of GAATAAAGGT, the switch fluorescence ratio is reported as 0.979 ± 0.02.

GAATAGCCCA was tested, and the switch fluorescence ratio was 0.9711 ± 0.0012.

For GAATAGGGGG, the switch fluorescence ratio was 1.013 ± 0.0094.

GAATAGGGTA gave a switch fluorescence ratio of 0.98 ± 0.018.

GAATAGTGGG gave a switch fluorescence ratio of 1.006 ± 0.005.

For GAATATATAG, the switch fluorescence ratio was 0.965 ± 0.011.

In the case of GAATATTGAG, the switch fluorescence ratio is reported as 0.99 ± 0.019.

GAATCATAGA gave a switch fluorescence ratio of 1.004 ± 0.0094.

GAATCCGCCC gave a switch fluorescence ratio of 2.85 ± 0.74.

Work on GAATCGTCG yielded a switch fluorescence ratio of 0.983 ± 0.025.

GAATGGAGAA showed a switch fluorescence ratio of 0.992 ± 0.078.

Work on GAATGGAGTA yielded a switch fluorescence ratio of 1.04 ± 0.039.

Sequence GAATGGATGC has a switch fluorescence ratio of 1.01 ± 0.0064.

Sequence GAATGGCCTT has a switch fluorescence ratio of 0.9949 ± 0.0072.

Work on GAATGGGGTG yielded a switch fluorescence ratio of 1.02 ± 0.041.

Work on GAATGGTTTC yielded a switch fluorescence ratio of 0.9947 ± 0.0053.

With GAATGTGGGC the switch fluorescence ratio was 0.955 ± 0.028.

GAATGTTGTT showed a switch fluorescence ratio of 0.9476 ± 0.0092.

GAATTACGGG gave a switch fluorescence ratio of 1.02 ± 0.023.

GAATTAGACG showed a switch fluorescence ratio of 0.977 ± 0.01.

For GAATTAGGTT, the switch fluorescence ratio was 1.01 ± 0.077.

GAATTATGCC showed a switch fluorescence ratio of 0.977 ± 0.021.

Work on GAATTGAGGG yielded a switch fluorescence ratio of 0.97 ± 0.054.

GAATTGGT showed a switch fluorescence ratio of 1.01 ± 0.012.

In the case of GAATTGGTTG, the switch fluorescence ratio is reported as 1 ± 0.04.

With GAATTGTTGT the switch fluorescence ratio was 1 ± 0.02.

For GAATTTAAGT, the switch fluorescence ratio was 1.009 ± 0.0048.

Sequence GAATTTACCT has a switch fluorescence ratio of 1.2 ± 0.039.

With GAATTTAGGT the switch fluorescence ratio was 0.996 ± 0.028.

GAATTTATAT gave a switch fluorescence ratio of 0.998 ± 0.0032.

GAATTTGAGA was tested, and the switch fluorescence ratio was 0.997 ± 0.019.

GAATTTGATG gave a switch fluorescence ratio of 1 ± 0.042.

With GACAAAGCGG the switch fluorescence ratio was 1.07 ± 0.041.

With GACAAAGGGC the switch fluorescence ratio was 1.08 ± 0.027.

GACACCACAG showed a switch fluorescence ratio of 1.162 ± 0.0035.

Work on GACACCATTC yielded a switch fluorescence ratio of 1.13 ± 0.017.

With GACACTGGTA the switch fluorescence ratio was 1 ± 0.027.

Work on GACACTTGCT yielded a switch fluorescence ratio of 0.99 ± 0.035.

GACAGAATGT gave a switch fluorescence ratio of 0.976 ± 0.023.

Sequence GACAGCAAAT has a switch fluorescence ratio of 1.406 ± 0.0043.

With GACAGCCTTA the switch fluorescence ratio was 1.01 ± 0.0069.

For GACAGCGCTA, the switch fluorescence ratio was 1.01 ± 0.042.

For GACAGTAGGG, the switch fluorescence ratio was 1 ± 0.043.

Work on GACAGTGGTT yielded a switch fluorescence ratio of 1.05 ± 0.059.

For GACATATACA, the switch fluorescence ratio was 1.07 ± 0.025.

GACATGAGTT gave a switch fluorescence ratio of 0.984 ± 0.026.

For GACATGGCTT, the switch fluorescence ratio was 0.975 ± 0.011.

GACATGTGGC gave a switch fluorescence ratio of 1.03 ± 0.037.

With GACATGTTTT the switch fluorescence ratio was 1.039 ± 0.0097.

In the case of GACATTTGCA, the switch fluorescence ratio is reported as 1.03 ± 0.023.

For GACCAAGTCA, the switch fluorescence ratio was 0.997 ± 0.026.

Work on GACCATGTAC yielded a switch fluorescence ratio of 1.48 ± 0.1.

GACCCCGATT showed a switch fluorescence ratio of 1.05 ± 0.022.

In the case of GACCCTATAA, the switch fluorescence ratio is reported as 1.11 ± 0.066.

GACCCTTAGA showed a switch fluorescence ratio of 1.01 ± 0.011.

Sequence GACCGAAAAT has a switch fluorescence ratio of 1.055 ± 0.0015.

Work on GACCGCATTT yielded a switch fluorescence ratio of 1.68 ± 0.46.

For GACCGGCATG, the switch fluorescence ratio was 1.01 ± 0.024.

In the case of GACCGGCGGT, the switch fluorescence ratio is reported as 0.996 ± 0.035.

GACCGTGGGG gave a switch fluorescence ratio of 1 ± 0.027.

With GACCTAGCTA the switch fluorescence ratio was 1.14 ± 0.053.

GACCTCATTT showed a switch fluorescence ratio of 1.04 ± 0.032.

In the case of GACCTGGGTC, the switch fluorescence ratio is reported as 1.01 ± 0.0023.

Sequence GACGAACATT has a switch fluorescence ratio of 1.18 ± 0.21.

GACGAAGTTG was tested, and the switch fluorescence ratio was 1.01 ± 0.029.

GACGAATTGG gave a switch fluorescence ratio of 0.997 ± 0.021.

GACGACGGTT showed a switch fluorescence ratio of 1.55 ± 0.1.

With GACGAGCCAG the switch fluorescence ratio was 1.002 ± 0.0066.

With GACGATAGTT the switch fluorescence ratio was 0.977 ± 0.026.

GACGATTGTT gave a switch fluorescence ratio of 0.988 ± 0.021.

For GACGCATCTA, the switch fluorescence ratio was 3.35 ± 0.36.

GACGCGAGTT showed a switch fluorescence ratio of 1.09 ± 0.022.

In the case of GACGCTAAAG, the switch fluorescence ratio is reported as 1.08 ± 0.029.

GACGGACTTT was tested, and the switch fluorescence ratio was 1.143 ± 0.006.

GACGGAGGCT gave a switch fluorescence ratio of 1.04 ± 0.042.

Sequence GACGGCAATG has a switch fluorescence ratio of 1.05 ± 0.032.

GACGGCGCAG was tested, and the switch fluorescence ratio was 1.06 ± 0.14.

GACGGCGGGC showed a switch fluorescence ratio of 0.989 ± 0.023.

GACGGGGGAT gave a switch fluorescence ratio of 1.081 ± 0.0031.

Sequence GACGGGGTGC has a switch fluorescence ratio of 1.3 ± 0.24.

In the case of GACGGGTGTC, the switch fluorescence ratio is reported as 0.967 ± 0.012.

GACGGGTTGG was tested, and the switch fluorescence ratio was 0.992 ± 0.045.

Sequence GACGGGTTTG has a switch fluorescence ratio of 0.9915 ± 0.0074.

With GACGGTTGGG the switch fluorescence ratio was 0.983 ± 0.026.

Sequence GACGGTTTAG has a switch fluorescence ratio of 1.04 ± 0.058.

GACGTAGACA showed a switch fluorescence ratio of 1.042 ± 0.01.

GACGTCGGTC gave a switch fluorescence ratio of 0.9984 ± 0.0089.

In the case of GACGTGCAGG, the switch fluorescence ratio is reported as 1.07 ± 0.11.

GACGTGTTGG gave a switch fluorescence ratio of 1.01 ± 0.065.

GACGTTAGCT was tested, and the switch fluorescence ratio was 1.03 ± 0.012.

With GACGTTAGGG the switch fluorescence ratio was 0.957 ± 0.042.

GACGTTTACA gave a switch fluorescence ratio of 1.17 ± 0.016.

With GACTAAAAGA the switch fluorescence ratio was 0.99 ± 0.055.

In the case of GACTAATTTT, the switch fluorescence ratio is reported as 0.9844 ± 0.0081.

GACTAGGGGG gave a switch fluorescence ratio of 1 ± 0.048.

Sequence GACTAGTGGT has a switch fluorescence ratio of 1.01 ± 0.035.

In the case of GACTATCTAG, the switch fluorescence ratio is reported as 0.975 ± 0.056.

GACTATGACC showed a switch fluorescence ratio of 1.05 ± 0.013.

For GACTATGGGA, the switch fluorescence ratio was 1.42 ± 0.55.

Work on GACTCATAAT yielded a switch fluorescence ratio of 1.004 ± 0.0015.

GACTCCGATT showed a switch fluorescence ratio of 2.28 ± 0.1.

Work on GACTCTACGG yielded a switch fluorescence ratio of 1.05 ± 0.032.

With GACTGAAAAA the switch fluorescence ratio was 0.981 ± 0.14.

GACTGAGAGT showed a switch fluorescence ratio of 1 ± 0.054.

With GACTGAGTTC the switch fluorescence ratio was 0.972 ± 0.042.

In the case of GACTGGGCGG, the switch fluorescence ratio is reported as 1 ± 0.021.

Work on GACTGGGGG yielded a switch fluorescence ratio of 1.0292 ± 0.00087.

Sequence GACTGGGGGA has a switch fluorescence ratio of 1.01 ± 0.025.

Work on GACTGGTATG yielded a switch fluorescence ratio of 0.972 ± 0.011.

GACTTACCAC was tested, and the switch fluorescence ratio was 1.17 ± 0.052.

GACTTAGGAA showed a switch fluorescence ratio of 1.05 ± 0.072.

GACTTGAATT gave a switch fluorescence ratio of 0.99 ± 0.034.

Sequence GACTTGGTAG has a switch fluorescence ratio of 0.9884 ± 0.0053.

In the case of GACTTGGTGT, the switch fluorescence ratio is reported as 1.047 ± 0.0092.

With GACTTGTTGG the switch fluorescence ratio was 0.974 ± 0.042.

Work on GACTTTAGCG yielded a switch fluorescence ratio of 1.03 ± 0.023.

In the case of GACTTTGAGC, the switch fluorescence ratio is reported as 1.01 ± 0.016.

Sequence GACTTTGTAC has a switch fluorescence ratio of 1.06 ± 0.014.

Work on GACTTTTGGG yielded a switch fluorescence ratio of 1.01 ± 0.033.

GAGAAAAAGG showed a switch fluorescence ratio of 0.976 ± 0.013.

GAGAACGGTG gave a switch fluorescence ratio of 1 ± 0.032.

With GAGAACGTAG the switch fluorescence ratio was 0.9817 ± 0.0066.

With GAGAAGGGGG the switch fluorescence ratio was 1.04 ± 0.049.

In the case of GAGAAGGGTG, the switch fluorescence ratio is reported as 1.01 ± 0.071.

Work on GAGAAGTGTG yielded a switch fluorescence ratio of 0.993 ± 0.038.

Sequence GAGAATTATA has a switch fluorescence ratio of 0.978 ± 0.019.

Work on GAGAGAACTT yielded a switch fluorescence ratio of 1.03 ± 0.021.

GAGAGCAGGG was tested, and the switch fluorescence ratio was 0.995 ± 0.026.

For GAGAGCCTTA, the switch fluorescence ratio was 0.9853 ± 0.0079.

For GAGAGGAGAG, the switch fluorescence ratio was 0.998 ± 0.035.

GAGAGGAGCT gave a switch fluorescence ratio of 1.01 ± 0.039.

GAGAGGGGGC showed a switch fluorescence ratio of 0.931 ± 0.018.

GAGAGTGTGT was tested, and the switch fluorescence ratio was 0.982 ± 0.011.

GAGATACATG gave a switch fluorescence ratio of 1.02 ± 0.044.

GAGATCGGTA gave a switch fluorescence ratio of 1.006 ± 0.0069.

Work on GAGATGCTGC yielded a switch fluorescence ratio of 1.05 ± 0.017.

GAGATGGGGG showed a switch fluorescence ratio of 0.981 ± 0.038.

GAGATGTACC was tested, and the switch fluorescence ratio was 1.03 ± 0.026.

For GAGATTAAGA, the switch fluorescence ratio was 0.973 ± 0.1.

Sequence GAGATTCGCT has a switch fluorescence ratio of 0.988 ± 0.014.

GAGATTGGGG was tested, and the switch fluorescence ratio was 0.99 ± 0.022.

GAGCAGGGGT gave a switch fluorescence ratio of 1.04 ± 0.063.

In the case of GAGCATAGGG, the switch fluorescence ratio is reported as 1.02 ± 0.013.

Sequence GAGCATTGGA has a switch fluorescence ratio of 0.992 ± 0.036.

GAGCCACGGG showed a switch fluorescence ratio of 1.04 ± 0.015.

GAGCCTGGGT gave a switch fluorescence ratio of 1.01 ± 0.017.

Sequence GAGCGAAGGA has a switch fluorescence ratio of 1.01 ± 0.029.

GAGCGCGGCG showed a switch fluorescence ratio of 0.977 ± 0.048.

Sequence GAGCGTAGTA has a switch fluorescence ratio of 1 ± 0.037.

Sequence GAGCGTCTGG has a switch fluorescence ratio of 1.02 ± 0.011.

GAGCTACGGG showed a switch fluorescence ratio of 1.01 ± 0.033.

Work on GAGCTAGGCA yielded a switch fluorescence ratio of 0.958 ± 0.03.
